This note sets out measurements from patent US20200087400A1 (EUREKA THERAPEUTICS, published 2020).

Assay [1] addresses T1, control peptide A2E-23/HLA-A*02:01 complex on T2 cells (member of the P19 mixture) (human).
T1 construct: Loaded on T2 cells as part of the mixture of 19 control peptides
Description: flow cytometry, phage on T2 cells. The protocol: (§1) Individual phage clones from enriched phage display panning pools against PSA146/HLA-A*02:01 complex were incubated in the coated plates. Binding of the phage clones was detected by HRP-conjugated anti-M13 antibodies and developed using HRP substrate. The absorbance was read at 450 nm. […] Then, unique antibody clones were identified through DNA sequencing of ELISA-positive clones. […] T2 cells loaded with different peptides and β2M were first stained with purified scFv phage clones, followed by staining with a mouse anti-M13 mAb, and finally R-PE conjugated horse anti-mouse IgG from Vector Labs. Each step of the staining was performed for between 30-60 minutes on ice and the cells were washed twice between stainings. All 16 clones recognized PSA146-loaded T2 cells specifically. FIG. 3 provides examples of PSA146/HLA-A*02:01 specific phage clone binding to peptide-loaded T2 cells through FACS.
A general note: A flow cytometer gives signals particle by particle.

Assay [2] deals with T2, control peptide A2E-1/HLA-A*02:01 complex on T2 cells (member of the P19 mixture) (human).
T2 construct: Loaded on T2 cells as part of the mixture of 19 control peptides
In words: flow cytometry, phage on T2 cells. The protocol: as §1

The target of assay [3] is T3, control peptide A2E-10/HLA-A*02:01 complex on T2 cells (member of the P19 mixture) (human).
T3 construct: Loaded on T2 cells as part of the mixture of 19 control peptides
Description: flow cytometry, phage on T2 cells. The protocol:
as §1

The target of assay [4] is T4, control peptide A2E-11/HLA-A*02:01 complex on T2 cells (member of the P19 mixture) (human).
T4 construct: Loaded on T2 cells as part of the mixture of 19 control peptides
Description: flow cytometry, phage on T2 cells. Here is the method:
as §1

Assay [5] has as its target T5, control peptide A2E-19/HLA-A*02:01 complex on T2 cells (member of the P19 mixture) (human).
T5 construct: Loaded on T2 cells as part of the mixture of 19 control peptides
Description: flow cytometry, phage on T2 cells. The protocol: as §1

For assay [6], the target named is T6, control peptide A2E-5/HLA-A*02:01 complex on T2 cells (member of the P19 mixture) (human).
T6 construct: Loaded on T2 cells as part of the mixture of 19 control peptides
In words: flow cytometry, phage on T2 cells. The protocol:
as §1

In assay [7] the target is T7, control peptide A2E-13/HLA-A*02:01 complex on T2 cells (member of the P19 mixture) (human).
T7 construct: Loaded on T2 cells as part of the mixture of 19 control peptides
In words: flow cytometry, phage on T2 cells. Here is the method:
as §1

Assay [8] deals with T8, control peptide A2E-3/HLA-A*02:01 complex on T2 cells (member of the P19 mixture) (human).
T8 construct: Loaded on T2 cells as part of the mixture of 19 control peptides
In words: flow cytometry, phage on T2 cells. The protocol: as §1

The target of assay [9] is T9, control peptide A2E-9/HLA-A*02:01 complex on T2 cells (member of the P19 mixture) (human).
T9 construct: Loaded on T2 cells as part of the mixture of 19 control peptides
Description: flow cytometry, phage on T2 cells. Here is the method:
as §1

Assay [10] concerns the target T10, control peptide A2E-21/HLA-A*02:01 complex on T2 cells (member of the P19 mixture) (human).
T10 construct: Loaded on T2 cells as part of the mixture of 19 control peptides
Description: flow cytometry, phage on T2 cells. Here is the method:
as §1

The target of assay [11] is T11, control peptide A2E-7/HLA-A*02:01 complex on T2 cells (member of the P19 mixture) (human).
T11 construct: Loaded on T2 cells as part of the mixture of 19 control peptides
In words: flow cytometry, phage on T2 cells. The protocol: as §1

Assay [12] has as its target T12, control peptide A2E-14/HLA-A*02:01 complex on T2 cells (member of the P19 mixture) (human).
T12 construct: Loaded on T2 cells as part of the mixture of 19 control peptides
Description: flow cytometry, phage on T2 cells. Here is the method:
as §1

Assay [13] has as its target T13, control peptide A2E-17/HLA-A*02:01 complex on T2 cells (member of the P19 mixture) (human).
T13 construct: Loaded on T2 cells as part of the mixture of 19 control peptides
In words: flow cytometry, phage on T2 cells. Here is the method: as §1

Assay [14] deals with T14, control peptide A2E-8/HLA-A*02:01 complex on T2 cells (member of the P19 mixture) (human).
T14 construct: Loaded on T2 cells as part of the mixture of 19 control peptides
Description: flow cytometry, phage on T2 cells. The protocol: as §1

The target of assay [15] is T15, control peptide A2E-4/HLA-A*02:01 complex on T2 cells (member of the P19 mixture) (human).
T15 construct: Loaded on T2 cells as part of the mixture of 19 control peptides
In words: flow cytometry, phage on T2 cells. The protocol: as §1

In assay [16] the target is T16, control peptide A2E-15/HLA-A*02:01 complex on T2 cells (member of the P19 mixture) (human).
T16 construct: Loaded on T2 cells as part of the mixture of 19 control peptides
In words: flow cytometry, phage on T2 cells. The protocol:
as §1

Assay [17] has as its target T17, control peptide A2E-16/HLA-A*02:01 complex on T2 cells (member of the P19 mixture) (human).
T17 construct: Loaded on T2 cells as part of the mixture of 19 control peptides
In words: flow cytometry, phage on T2 cells. The protocol:
as §1

Assay [18] has as its target T18, control peptide A2E-6/HLA-A*02:01 complex on T2 cells (member of the P19 mixture) (human).
T18 construct: Loaded on T2 cells as part of the mixture of 19 control peptides
Description: flow cytometry, phage on T2 cells. Here is the method: as §1

The target of assay [19] is T19, control peptide A2E-2/HLA-A*02:01 complex on T2 cells (member of the P19 mixture) (human).
T19 construct: Loaded on T2 cells as part of the mixture of 19 control peptides
Description: flow cytometry, phage on T2 cells. Here is the method:
as §1

For the next assay, the target named is T20, Bio-P19 member A2E-10 (chain 2: C-terminal BirA substrate peptide (BSP), enzymatically biotinylated; its letters are not printed in the patent and it is left out).
T20 construct: also called biotinylated control peptide A2E-10/HLA-A*02:01 monomer
In words: phage ELISA, streptavidin plate, anti-M13-HRP. The protocol:
as §1
A general note: An ELISA detects its analyte on a solid surface through an enzyme-linked reagent.

Another assay has as its target T21, Bio-P19 member A2E-1 (chain 2: C-terminal BirA substrate peptide (BSP), enzymatically biotinylated; its letters are not printed in the patent and it is left out).
T21 construct: also called biotinylated control peptide A2E-1/HLA-A*02:01 monomer
In words: phage ELISA, streptavidin plate, anti-M13-HRP. The protocol: as §1

For the next assay, the target named is T22, Bio-P19 member A2E-14 (chain 2: C-terminal BirA substrate peptide (BSP), enzymatically biotinylated; its letters are not printed in the patent and it is left out).
T22 construct: also called biotinylated control peptide A2E-14/HLA-A*02:01 monomer
In words: phage ELISA, streptavidin plate, anti-M13-HRP. Here is the method:
as §1

For assay [20], the target named is T23, PSA 146-154 peptide/HLA-A*02:01 complex on the cell surface (human).
T23 construct: also called PSA146/HLA-A*02:01; PSA146-loaded T2 cells
In words: flow cytometry, phage on T2 cells, anti-M13 + R-PE anti-mouse IgG. The protocol:
as §1

The target of assay [21] is T24, HLA-A*02:01 on T2 cells with no peptide loaded (human).
T24 construct: TAP-deficient T2 cells, no peptide loaded from outside; also called T2 cells without peptide loading
The description is as above. The protocol: as §1

B1: PSA146/HLA-A*02:01-specific scFv phage clone #3 (scFv, V domains shown)
VH: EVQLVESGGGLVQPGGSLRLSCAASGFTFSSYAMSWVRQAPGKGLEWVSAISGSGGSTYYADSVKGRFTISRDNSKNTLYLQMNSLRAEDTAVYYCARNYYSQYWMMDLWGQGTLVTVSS
VL: QSVLTQPPSVSGAPGQRVTISCTGSSSNFGAGYDVHWYQQLPGAAPKLLIYGDTNRPSGVPDRFSGSKSGTSASLAITGLQAEDEADYYCQSYDTSLSGSVFGGGTKLTVLG
Take B1: the binding result in assay [1], in assay [2], in assay [3], in [4], in [5] and in assay [6] was “no binding” in each case. For the same molecule, the binding result in [7], in assay [8], in assay [9], in [10], in assay [11] and in assay [12] was “no binding” in each case. In addition, the binding result in assay [13], in assay [14], in [15], in assay [16], in assay [17] and in assay [18] was “no binding” throughout. The binding result in assay [19] was “no binding”; with Bio-P19 member A2E-10 it was “no binding”; with Bio-P19 member A2E-1 it was “no binding”; with Bio-P19 member A2E-14 it was “no binding”; in assay [20] it was “binds”; in [21], “no binding”.

B2: PSA146/HLA-A*02:01-specific scFv phage clone #2 (scFv, V domains shown)
VH: EVQLVQSGAEVKRPGSSVKVSCKASGGTFSSYAINWVRRAPGQGLEWMGKIIPIPGITNYAQKFQDRVTFTADTSTNIAYMELSSLRSEDTAMYYCARSYKWGSSLVDAWGQGTLVTVSS
VL: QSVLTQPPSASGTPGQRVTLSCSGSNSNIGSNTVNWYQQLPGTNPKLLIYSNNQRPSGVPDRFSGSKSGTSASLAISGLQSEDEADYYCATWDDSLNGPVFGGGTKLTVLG
With B2, the binding result in assay [1], in assay [2], in assay [3], in assay [4], in assay [5] and in [6] was “no binding” in each case. Moreover, the binding result in assay [7], in assay [8], in assay [9], in assay [10], in assay [11] and in assay [12] was “no binding” each time. The binding result in assay [13], in [14], in assay [15], in assay [16], in assay [17] and in assay [18] was “no binding” throughout. Further, the binding result in assay [19] is on record as “no binding”; with Bio-P19 member A2E-10, “no binding”; in the assay with Bio-P19 member A2E-1 it was “no binding”; in the assay with Bio-P19 member A2E-14, “no binding”; in assay [20], “binds”; in [21], “no binding”.
